# Test results reported in IntAct's records for PubMed 31515488.
# B1: 26S proteasome non-ATPase regulatory subunit 9 (Homo sapiens), O00233 (parent)
# chain: MSDEEARQSGGSSQAGVVTVSDVQELMRRKEEIEAQIKANYDVLESQKGIGMNEPLVDCEGYPRSDVDLYQVRTARHNIICLQNDHKAVMKQVEEALHQLHARDKEKQARDMAEAHKEAMSRKLGQSESQGPPRAFAKVNSISPGSPASIAGLQVDDEIVEFGSVNTQNFQSLHNIGSVVQHSEGKPLNVTVIRRGEKHQLRLVPTRWAGKGLLGCNIIPLQR
# B2: Protein DBF4 homolog B (Homo sapiens), Q8NFT6 (parent)
# chain: MSEPGKGDDCLELESSMAESRLRAPDLGVSRCLGKCQKNSPGARKHPFSGKSFYLDLPAGKNLQFLTGAIQQLGGVIEGFLSKEVSYIVSSRREVKAESSGKSHRGCPSPSPSEVRVETSAMVDPKGSHPRPSRKPVDSVPLSRGKELLQKAIRNQGSISGGGSGGSSSLLTNARSWGVRILHVDEMMMHVQQLSLASLCVKKQQPKKPEGTCPAAESRTRKVARLKAPFLKIEDESRKFRPFHHQFKSFPEISFLGPKDASPFEAPTTLGSMHHTRESKDGEPSPRSAAHTMPRRKKGYCECCQEAFEELHVHLQSAQHRSFALEAHLYAEVDRIIAQLSHSFADIPFQAGLPRWSGSPASDCDPLCPETLHPHQPSHPRAASPRIRKEDSCQASVTQGRAAGQQRWTESLDGVMGPPASHTCVSATTLLPALPKGSREQGCLCPCPASFTQSHLVTSLALLPGEWSPAEDMPLHPSQENSFAPADIPVKGPLLFPEARPWLMSARCWVRPFPFVTWGCLIPHDTTPLHEEVSPCPCLRLGYLYLLLTQSLWCRVRVPSLSTAGPIPRTSHPCTLAFPSYLNDHDLGHLCQAKPQGWNTPQPFLHCGFLAVDSG
# partner: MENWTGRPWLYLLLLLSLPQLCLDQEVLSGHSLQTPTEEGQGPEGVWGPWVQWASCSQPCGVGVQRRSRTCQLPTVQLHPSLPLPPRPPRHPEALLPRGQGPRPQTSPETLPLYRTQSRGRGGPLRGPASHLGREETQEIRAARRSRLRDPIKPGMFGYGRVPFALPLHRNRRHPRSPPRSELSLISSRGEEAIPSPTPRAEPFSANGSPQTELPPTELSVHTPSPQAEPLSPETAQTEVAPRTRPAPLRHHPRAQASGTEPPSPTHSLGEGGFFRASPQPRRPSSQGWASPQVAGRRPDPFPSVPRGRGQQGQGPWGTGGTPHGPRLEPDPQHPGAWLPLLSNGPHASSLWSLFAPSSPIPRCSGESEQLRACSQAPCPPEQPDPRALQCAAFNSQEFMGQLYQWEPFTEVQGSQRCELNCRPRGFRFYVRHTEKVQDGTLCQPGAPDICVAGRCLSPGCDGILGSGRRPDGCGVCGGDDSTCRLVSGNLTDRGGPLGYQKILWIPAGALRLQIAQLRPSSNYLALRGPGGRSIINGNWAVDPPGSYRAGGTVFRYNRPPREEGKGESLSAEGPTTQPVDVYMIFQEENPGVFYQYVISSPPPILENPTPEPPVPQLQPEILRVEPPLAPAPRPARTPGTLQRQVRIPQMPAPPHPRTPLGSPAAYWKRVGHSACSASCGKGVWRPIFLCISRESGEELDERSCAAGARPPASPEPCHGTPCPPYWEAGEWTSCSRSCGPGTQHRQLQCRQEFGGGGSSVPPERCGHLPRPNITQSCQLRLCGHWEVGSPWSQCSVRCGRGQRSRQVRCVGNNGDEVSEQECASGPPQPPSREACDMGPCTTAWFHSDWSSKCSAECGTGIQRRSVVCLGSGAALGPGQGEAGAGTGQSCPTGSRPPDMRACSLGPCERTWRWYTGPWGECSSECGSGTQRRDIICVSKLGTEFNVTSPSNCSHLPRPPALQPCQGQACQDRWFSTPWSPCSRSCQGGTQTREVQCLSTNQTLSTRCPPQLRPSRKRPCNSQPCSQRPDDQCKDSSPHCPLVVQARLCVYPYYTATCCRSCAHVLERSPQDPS
# B3: Calcium-binding and coiled-coil domain-containing protein 2 (Homo sapiens), Q13137 (parent)
# chain: MEETIKDPPTSAVLLDHCHFSQVIFNSVEKFYIPGGDVTCHYTFTQHFIPRRKDWIGIFRVGWKTTREYYTFMWVTLPIDLNNKSAKQQEVQFKAYYLPKDDEYYQFCYVDEDGVVRGASIPFQFRPENEEDILVVTTQGEVEEIEQHNKELCKENQELKDSCISLQKQNSDMQAELQKKQEELETLQSINKKLELKVKEQKDYWETELLQLKEQNQKMSSENEKMGIRVDQLQAQLSTQEKEMEKLVQGDQDKTEQLEQLKKENDHLFLSLTEQRKDQKKLEQTVEQMKQNETTAMKKQQELMDENFDLSKRLSENEIICNALQRQKERLEGENDLLKRENSRLLSYMGLDFNSLPYQVPTSDEGGARQNPGLAYGNPYSGIQESSSPSPLSIKKCPICKADDICDHTLEQQQMQPLCFNCPICDKIFPATEKQIFEDHVFCHSL
# partner: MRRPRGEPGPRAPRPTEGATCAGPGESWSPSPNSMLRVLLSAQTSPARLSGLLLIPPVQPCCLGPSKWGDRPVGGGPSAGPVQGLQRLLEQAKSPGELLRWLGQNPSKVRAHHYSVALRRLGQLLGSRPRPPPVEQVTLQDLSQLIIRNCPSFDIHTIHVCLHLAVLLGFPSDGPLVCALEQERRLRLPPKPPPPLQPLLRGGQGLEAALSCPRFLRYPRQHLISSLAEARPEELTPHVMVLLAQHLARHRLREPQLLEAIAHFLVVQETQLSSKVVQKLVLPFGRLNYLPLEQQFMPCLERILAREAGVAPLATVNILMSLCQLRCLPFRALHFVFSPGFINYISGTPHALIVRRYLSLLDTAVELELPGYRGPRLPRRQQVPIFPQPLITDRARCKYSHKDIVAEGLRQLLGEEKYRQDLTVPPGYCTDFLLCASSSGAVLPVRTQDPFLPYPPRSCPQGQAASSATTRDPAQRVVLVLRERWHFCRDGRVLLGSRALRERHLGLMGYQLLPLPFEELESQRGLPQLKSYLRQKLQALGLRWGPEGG
# B4: F-box only protein 11 (Homo sapiens), Q86XK2 (parent)
# chain: MNSVRAANRRPRRVSRPRPVQQQQQQPPQQPPPQPPQQQPPQQQPPPPPQQQQQQQPPPPPPPPPPLPQERNNVGERDDDVPADMVAEESGPGAQNSPYQLRRKTLLPKRTACPTKNSMEGASTSTTENFGHRAKRARVSGKSQDLSAAPAEQYLQEKLPDEVVLKIFSYLLEQDLCRAACVCKRFSELANDPILWKRLYMEVFEYTRPMMHPEPGKFYQINPEEYEHPNPWKESFQQLYKGAHVKPGFAEHFYSNPARYKGRENMLYYDTIEDALGGVQEAHFDGLIFVHSGIYTDEWIYIESPITMIGAAPGKVADKVIIENTRDSTFVFMEGSEDAYVGYMTIRFNPDDKSAQHHNAHHCLEITVNCSPIIDHCIIRSTCTVGSAVCVSGQGACPTIKHCNISDCENVGLYITDHAQGIYEDNEISNNALAGIWVKNHGNPIIRRNHIHHGRDVGVFTFDHGMGYFESCNIHRNRIAGFEVKAYANPTVVRCEIHHGQTGGIYVHEKGRGQFIENKIYANNFAGVWITSNSDPTIRGNSIFNGNQGGVYIFGDGRGLIEGNDIYGNALAGIQIRTNSCPIVRHNKIHDGQHGGIYVHEKGQGVIEENEVYSNTLAGVWVTTGSTPVLRRNRIHSGKQVGVYFYDNGHGVLEDNDIYNHMYSGVQIRTGSNPKIRRNKIWGGQNGGILVYNSGLGCIEDNEIFDNAMAGVWIKTDSNPTLRRNKIHDGRDGGICIFNGGRGLLEENDIFRNAQAGVLISTNSHPILRKNRIFDGFAAGIEITNHATATLEGNQIFNNRFGGLFLASGVNVTMKDNKIMNNQDAIEKAVSRGQCLYKISSYTSYPMHDFYRCHTCNTTDRNAICVNCIKKCHQGHDVEFIRHDRFFCDCGAGTLSNPCTLAGEPTHDTDTLYDSAPPIESNTLQHN
# Variants of: B1
# Details: with prs6a_human PSMC3, P17980
# Sequence of prs6a_human PSMC3, P17980 (P17980 whole entry): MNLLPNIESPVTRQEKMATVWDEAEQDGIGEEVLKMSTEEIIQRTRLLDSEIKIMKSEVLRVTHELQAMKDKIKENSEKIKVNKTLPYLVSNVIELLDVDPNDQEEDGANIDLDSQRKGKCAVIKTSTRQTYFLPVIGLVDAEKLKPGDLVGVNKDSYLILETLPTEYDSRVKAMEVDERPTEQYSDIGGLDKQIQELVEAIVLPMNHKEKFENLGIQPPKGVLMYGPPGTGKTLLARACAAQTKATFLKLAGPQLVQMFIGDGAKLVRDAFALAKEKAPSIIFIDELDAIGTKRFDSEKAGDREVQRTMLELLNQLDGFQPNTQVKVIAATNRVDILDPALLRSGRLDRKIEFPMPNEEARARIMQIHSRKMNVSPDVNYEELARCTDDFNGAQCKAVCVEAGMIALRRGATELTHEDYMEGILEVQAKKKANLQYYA
row,Variant,effect of a mutation on the interaction
1,R110W,with no effect
2,R134W,with no effect

# Variants of: B1
# Details: with prs10_human PSMC6, P62333
# Sequence of prs10_human PSMC6, P62333 (P62333 whole entry): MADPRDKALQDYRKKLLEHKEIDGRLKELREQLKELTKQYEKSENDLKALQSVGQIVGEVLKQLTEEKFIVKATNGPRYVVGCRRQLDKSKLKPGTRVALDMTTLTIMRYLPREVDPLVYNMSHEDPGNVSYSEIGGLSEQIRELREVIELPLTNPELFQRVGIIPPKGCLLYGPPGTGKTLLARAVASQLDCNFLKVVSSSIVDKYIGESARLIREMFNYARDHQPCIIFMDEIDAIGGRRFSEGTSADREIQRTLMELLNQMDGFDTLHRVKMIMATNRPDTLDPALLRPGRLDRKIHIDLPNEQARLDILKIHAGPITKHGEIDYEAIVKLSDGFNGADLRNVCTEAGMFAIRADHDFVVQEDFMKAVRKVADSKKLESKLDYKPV
row,Variant,effect of a mutation on the interaction
1,R110W,with no effect
2,R134W,with no effect

# Variants of: B1
# Details: with cc136_human CCDC136, Q96JN2
# Sequence of cc136_human CCDC136, Q96JN2 (Q96JN2 whole entry): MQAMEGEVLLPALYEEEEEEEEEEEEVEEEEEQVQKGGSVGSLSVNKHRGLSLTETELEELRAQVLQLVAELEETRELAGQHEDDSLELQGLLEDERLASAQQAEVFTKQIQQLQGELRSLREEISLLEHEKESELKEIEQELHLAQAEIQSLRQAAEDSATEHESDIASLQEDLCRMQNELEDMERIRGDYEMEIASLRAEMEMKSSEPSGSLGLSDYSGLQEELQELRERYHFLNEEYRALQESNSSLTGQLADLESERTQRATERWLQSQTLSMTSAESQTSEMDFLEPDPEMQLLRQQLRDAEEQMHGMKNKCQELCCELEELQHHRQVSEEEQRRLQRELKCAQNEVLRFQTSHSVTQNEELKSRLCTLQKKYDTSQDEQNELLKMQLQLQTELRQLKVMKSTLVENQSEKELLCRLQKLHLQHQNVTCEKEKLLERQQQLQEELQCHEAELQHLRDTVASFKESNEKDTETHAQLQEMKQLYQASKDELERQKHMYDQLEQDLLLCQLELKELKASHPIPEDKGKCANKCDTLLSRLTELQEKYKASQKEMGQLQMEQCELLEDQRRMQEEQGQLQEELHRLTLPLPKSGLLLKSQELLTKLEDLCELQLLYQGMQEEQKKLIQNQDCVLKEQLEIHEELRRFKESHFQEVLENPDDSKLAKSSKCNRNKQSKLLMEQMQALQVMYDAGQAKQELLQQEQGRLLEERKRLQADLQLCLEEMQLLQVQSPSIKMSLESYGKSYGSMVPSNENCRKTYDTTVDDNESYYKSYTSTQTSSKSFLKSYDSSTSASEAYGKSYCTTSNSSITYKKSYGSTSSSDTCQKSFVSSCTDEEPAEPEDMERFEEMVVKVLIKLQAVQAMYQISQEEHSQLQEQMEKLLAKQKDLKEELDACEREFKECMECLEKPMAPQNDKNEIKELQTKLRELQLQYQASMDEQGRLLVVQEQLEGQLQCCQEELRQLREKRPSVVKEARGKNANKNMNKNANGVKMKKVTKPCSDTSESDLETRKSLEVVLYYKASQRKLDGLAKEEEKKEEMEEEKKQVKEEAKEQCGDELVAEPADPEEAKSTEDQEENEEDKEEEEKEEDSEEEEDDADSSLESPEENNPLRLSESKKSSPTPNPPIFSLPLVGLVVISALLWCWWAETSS
row,Variant,effect of a mutation on the interaction
1,R110W,with no effect
2,V17A,with no effect

# Variants of: B1
# Details: with spn90_human NCKIPSD
row,Variant,effect of a mutation on the interaction
1,R110W,with no effect
2,R134W,with no effect

# Variants of: B2
# Details: with atl4_human ADAMTSL4, Q6UY14
row,Variant,effect of a mutation on the interaction
1,L199S,with no effect

# Variants of: B3
# Details: with fastk_human FASTK
row,Variant,effect of a mutation on the interaction
1,V248A,with no effect

# Variants of: B4
# Details: with skp1_human SKP1, P63208
# Sequence of skp1_human SKP1, P63208 (P63208 whole entry): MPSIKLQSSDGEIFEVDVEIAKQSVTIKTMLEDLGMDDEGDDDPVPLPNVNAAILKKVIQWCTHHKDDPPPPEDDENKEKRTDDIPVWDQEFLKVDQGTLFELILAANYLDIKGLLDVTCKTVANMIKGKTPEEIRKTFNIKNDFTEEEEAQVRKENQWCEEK
row,Variant,effect of a mutation on the interaction
1,Y226C,with no effect
2,I306V,with no effect
